In patent US6013453, “Binding proteins for recognition of DNA” (Medical Research Council) one finds activity data, which are given here for one molecule.

The data set has as its target anti-BCR-ABL 1A-2A-3B/VP16 fusion (synthetic construct). Kind of data set: cell_activity; C3H10T1/2 cells. The text has this: Having established DNA discrimination in vitro, the inventors wished to test whether the anti-BCR-ABL peptide was capable of site-specific DNA-binding in vivo. The peptide was fused to the VP16 activation domain from herpes simplex virus (Fields 1993 Methods 5, 116–124) and used in transient transfection assays (FIG. 9) to drive production of a CAT (chloramphenicol acetyl transferase) reporter gene from a binding site upstream of the TATA box (Gorman et al., Mol. Cell. Biol. 2, 1044–1051). In detail the experiment was performed thus: reporter plasmids pMCAT6BA, pMCAT6A, and pMCAT6B, were constructed by inserting 6 copies of the p190^BCR-ABL target site ([…], SEQ ID No. 121), the c-ABL second exon-intron junction sequence ([…], Seq ID No. 122), or the BCR first exon-intron junction sequence ([…] Seq ID No. 123) respectively, into pMCAT3 (Luscher et al., 1989 Genes Dev. 3, 1507–1517). The anti-BCR-ABL/VP16 expression vector was generated by inserting the in-frame fusion between the activation domain of herpes simplex virus VP16 (Fields 1993) and the Zn finger peptide in the pEF-BOS vector (Mizushima & Shigezaku 1990 Nucl. Acids Res. 18, 5322). C3H10T1/2 cells were transiently co-transfected with […] of reporter plasmid and […] of expression vector. […]

B1: p190 BCR-ABL site x6 reporter pMCAT6BA (dsDNA)
DNA 1: CGCAGAAGCC
DNA 2: GGCTTCTGCG
Molecule B1 displayed an activity of approximately 30 fold CAT activation.
